Legend:
[1] = target: phi29 gp16 CTD (residues 223–332; C-terminal domain of the packaging ATPase) (bacteriophage phi29) (UniProt P11014); assay: AUC; sedimentation velocity, 42 000 rpm, 30°C, c(s) distribution in SEDFIT; CTD-L at 25 and 55 μM, CTD at 30 and 85 μM
[2] = target: T1, gp16 CTD (C-terminal domain of DNA packaging ATPase) (bacteriophage phi29, UniProt P11014 223-332); assay: fluorescence intensity titration; Fluorescence: 50 mM sodium phosphate pH 6.5, 200 mM NaCl, temperature not stated; NMR: same buffer plus 0.02% NaN3, 2 mM DSS, ~100 uM protein, 303 K; details: protein: recombinant, tags: His tag implied (pET30a NdeI/XhoI, Talon resin)
T1 sequence: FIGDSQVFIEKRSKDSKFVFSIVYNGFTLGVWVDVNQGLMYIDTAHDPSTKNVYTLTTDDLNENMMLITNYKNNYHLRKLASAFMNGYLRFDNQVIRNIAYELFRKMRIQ

[3] = target: the molecule itself; assay: AUC; sedimentation velocity, 42 000 rpm, 30°C, c(s) distribution in SEDFIT; CTD-L at 25 and 55 μM, CTD at 30 and 85 μM
[4] = target: T2, phi29 DNA packaging ATPase gp16, full length, assembled as a pentameric ring in the packaging motor on procapsids (bacteriophage phi29), P11014; assay: cryo-EM structure; NMR structure of the CTD fitted into a ∼5.2 Å cryoEM map of phi29 particles stalled during packaging with γ-S-ATP (map of ref. 25; CTD density 5-fold averaged); details: remark: other sources report otherwise
T2 chain: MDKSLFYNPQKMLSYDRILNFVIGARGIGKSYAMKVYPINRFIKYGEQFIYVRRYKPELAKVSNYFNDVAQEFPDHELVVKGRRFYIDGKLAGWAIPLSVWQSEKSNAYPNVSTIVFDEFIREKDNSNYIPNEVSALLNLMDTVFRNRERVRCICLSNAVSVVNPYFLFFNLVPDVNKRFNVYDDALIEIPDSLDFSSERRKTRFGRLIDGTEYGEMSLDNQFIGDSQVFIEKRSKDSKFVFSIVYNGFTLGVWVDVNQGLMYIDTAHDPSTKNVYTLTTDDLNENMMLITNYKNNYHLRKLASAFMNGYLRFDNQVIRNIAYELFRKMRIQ

Q: With “phi29 gp16 CTD (residues 223–332; C-terminal domain of the packaging ATPase) (from UniProt P11014 223-332) (domain or fragment)” as the molecule, how does the percent dimers at 30 and 85 μM [1] read?
A: 2%

B1: pRNA A-helix mimic, 3'-fluorescein (structured_RNA)
RNA: UCAAUGGUACGGUACUUCCAUUGUCAUGUUUUUCAUGGCAAAAGUGCACGCUACUUUGAU
Q: Which Kd ([2]; label: 3' fluorescein (36FAM), hairpin) does the source give for B1 here?
A: 3.2 µM

B2: 22 bp dsDNA, 3'-fluorescein (dsDNA)
DNA 1: GGTATCATGTGAGGGTGGGGGC
DNA 2: GCCCCCACCCTCACATGATACC
Q: With B2 as the molecule, how does the Kd ([2]; label: 3' fluorescein (36FAM) on strand 1, blunt) read?
A: 3.1 µM

B3: phi29 gp16 CTD-L (residues 208–332; inter-domain linker and C-terminal domain of the packaging ATPase) (domain or fragment, bacteriophage phi29, UniProt P11014 208-332, looked up)
chain: LIDGTEYGEMSLDNQFIGDSQVFIEKRSKDSKFVFSIVYNGFTLGVWVDVNQGLMYIDTAHDPSTKNVYTLTTDDLNENMMLITNYKNNYHLRKLASAFMNGYLRFDNQVIRNIAYELFRKMRIQ
notes: DNA packaging ATPase gp16 of bacteriophage phi29 (332 amino acids), residues 208-332: inter-domain linker plus C-terminal domain; Cloned between NdeI and XhoI of pET30a, which would add a C-terminal His6 tag (surmised); Isotope-labelled for the NMR experiments; also called gp16 CTD-L (208–332); source: E. coli BL21(DE3), pET30a, purified (Talon resin, HiTrap Q HP)
Q: B3 was tested. Which “stoichiometry N” value [3] did it give?
A: 2

B4: phi29 DNA packaging ATPase gp16, full length, assembled as a pentameric ring in the packaging motor on procapsids, P11014 1-332 (enzyme)
chain: MDKSLFYNPQKMLSYDRILNFVIGARGIGKSYAMKVYPINRFIKYGEQFIYVRRYKPELAKVSNYFNDVAQEFPDHELVVKGRRFYIDGKLAGWAIPLSVWQSEKSNAYPNVSTIVFDEFIREKDNSNYIPNEVSALLNLMDTVFRNRERVRCICLSNAVSVVNPYFLFFNLVPDVNKRFNVYDDALIEIPDSLDFSSERRKTRFGRLIDGTEYGEMSLDNQFIGDSQVFIEKRSKDSKFVFSIVYNGFTLGVWVDVNQGLMYIDTAHDPSTKNVYTLTTDDLNENMMLITNYKNNYHLRKLASAFMNGYLRFDNQVIRNIAYELFRKMRIQ
Q: How did the stoichiometry N [4] turn out when B4 was run?
A: 5

— article PMC7672431, “NMR structure of a vestigial nuclease provides insight into the evolution of functional transitions in viral dsDNA packaging motors” (Nucleic Acids Research, 2020)
